Assay results reported in the Human Domainome abundance scans (Beltran et al. 2025).

B1: Lysine-specific demethylase 5C, residues 319 to 373; numbered along this chain, P41229 (parent)
chain: AQFIESYVCRMCSRGDEDDKLLLCDGCDDNYHIFCLLPPLPEIPKGVWRCPKCVM

Variants of: B1
Test: abundance fitness (aPCA) (normalised: wild type 0, dead -1); higher = more abundant; growth selection in yeast, the domain comes from the species named
Settings: Homo sapiens

Abundance fitness, by site and new letter:
L23: A 0.044, P -0.017, M 0.235, D 0.084, Q -0.073, C -0.122, E -0.078, I -0.156, R 0.166, T 0.094, H -0.302, G -0.086, N 0.099, S 0.148, K 0.169, W -0.224, F -0.405, Y -0.141
L22: M 0.05, Y -1.07, F -0.551, W -0.838, E -0.523, V -0.163, P -0.897, D -1.1, C -0.052, H -0.612, A -0.243, R -0.169, G -0.912, N -0.4, K -0.332, Q -0.561, S -0.474
S13: I -0.029, P -0.13, L 0.044, R 0.007, G 0.074, D -0.042, W -0.237, A -0.231, Q -0.183, E 0.419, N -0.212, T -0.035, F -0.2, H -0.239, Y -0.149, V -0.121, C -0.171, K -0.196
N30: C 0.006, R 0.071, L -0.238, I 0.219, D -0.774, M -0.206, Y -0.143, S -0.068, V 0.152, G 0.052, H -0.176, K 0.098, W -0.117, P -0.088, Q 0.157, F -0.077, E -0.052
C35: S -0.597, E -0.794, I -1, R -0.41, N -0.842, P -0.638, F -0.556, H -0.235, G -0.9, K -0.947, A -0.83, Q -1.03
K20: V -0.253, L -0.087, W -0.317, H -0.103, I -0.489, P -0.043, T 0.096, Y -0.035, C -0.379, N -0.327, R -0.136, M -0.596, A -0.065, F -0.16, Q -0.093, G -0.666
G26: A 0.161, Q -0.129, I -0.21, N -0.105, T 0.004, C 0.017, D -0.034, M -0.178, H 0.092, S -0.159, K 0.133, Y -0.341, P -0.799, V -0.217, L -0.071, W -0.375, F -0.047
D19: V -0.102, I -0.198, F -0.103, Q -0.014, L -0.162, R -0.03, N 0.04, K 0.064, H -0.032, W -0.146, E -0.091, T 0.242, C 0.019, M -0.254, G 0.08, Y -0.335, A 0.063, S -0.089, P -0.15
D29: E 0.017, F -0.128, L -0.101, A 0.06, V -0.228, M -0.237, N 0.274, Y 0.036, R 0.004, G -0.077
D18: F 0.157, N -0.087, M 0.107, E 0.042, S 0.028, K 0.184, W 0.035, Y -0.284, C -0.178, I 0.125, Q 0.224, H 0.324, P 0.176, L 0.052, R 0.087, T -0.065, V 0.034, A 0.112, G 0.183
C27: L -0.842, I -0.923, A -0.921, S -0.823
